# Assay results published in US20240041978A1, “LA PROTEIN AS A NOVEL REGULATOR OF OSTEOCLASTOGENESIS” (The U.S.A., as Represented by the Secretary, Department of …, priority 2021, published 2024).
# B1: recombinant La: recombinant La, species not specified at the place; 40 nM FL La in HA0-RBC assay (protein, UniProt P05455 1-408, looked up)
# Lupus La protein: MAENGDNEKMAALEAKICHQIEYYFGDFNLPRDKFLKEQIKLDEGWVPLEIMIKFNRLNRLTTDFNVIVEALSKSKAELMEISEDKTKIRRSPSKPLPEVTDEYKNDVKNRSVYIKGFPTDATLDDIKEWLEDKGQVLNIQMRRTLHKAFKGSIFVVFDSIESAKKFVETPGQKYKETDLLILFKDDYFAKKNEERKQNKVEAKLRAKQEQEAKQKLEEDAEMKSLEEKIGCLLKFSGDLDDQTCREDLHILFSNHGEIKWIDFVRGAKEGIILFKEKAKEALGKAKDANNGNLQLRNKEVTWEVLEGEVEKEALKKIIEDQQESLNKWKSKGRRFKGKGKGNKAAQPGSGKGKVQFQGKKTKFASDDEHDEHDENGATGPVKRAREETDKEEPASKQQKTENGAGDQ
# Legend:
# [1] = tested on: HA0-expressing 3T3 fibroblasts and red blood cells; experiment: HA0-RBC fusion assay; format: cell-based, mouse, human
# [2] = tested on: human monocyte-derived osteoclasts; experiment: Osteoclast fusion assay (number of fusion events, fluorescence microscopy); format: cell-based; conditions: recombinant protein ~40 nM added end of day 2 post-RANKL, overnight
# Method: Osteoclasts: Elutriated monocytes from healthy donors were obtained. Cells were plated at 2.9×10^5 per cm^2 in 35 mm dishes with polymer coverslip bottoms (Ibidi #81156) for imaging or 35 mm or 10 cm dishes for biochemical experiments in complete media [α-MEM supplemented with 10% Fetal Bovine Serum (FBS) and penicillin-streptomycin-L-glutamine (Gibco Invitrogene #12571063; #26140079 and #10378016, respectively)]. Monocytes were differentiated to M2 macrophages in the presence of 100 ng/ml M-CSF for 6 days and then differentiated with 100 ng/ml M-CSF and 100 ng/ml RANKL for 3 days unless indicated otherwise. RAW 264.7 cells (ATCC, Manassas, VA, #TIB-71) were maintained in DMEM supplemented with 10% FBS to a maximum of 8 passages. RAW 264.7 cells were differentiated to osteoclasts in the presence of 100 ng/ml murine RANKL for 5 days. To separate unfused mononucleated and fused, multinucleated RAW 264.7 cells into separate fractions, advantage was taken of the much stronger adherence of multinucleated cells to culture dish plastic. After washing in PBS, mixed RAW cultures (following RANKL differentiation) were left in Ca^2+ and Mg^2+ free PBS for 10 minutes at room temperature. Culture dishes were then tapped on the lab bench and a large portion of unfused, mononucleated RAW cells were released, and these released cells were collected via centrifugation. This process was repeated 2-4 times until dishes were left with a population of primarily fused, multinucleated syncytia. Mononucleated and multinucleated cell fractions were then processed for biochemical or imaging experiments as described below.
# Constructs & Recombinant proteins & Transfection: Recombinant La 1-408, 1-375, 1-375 Q20A_Y24A_D33I, 1-187 and 188-375 were amplified with primers designed with overlapping sequences and inserted between NdeI/HindIII in the V78 pET28A E. coli expression vector, adding to each a N-terminal 6×his affinity tag. La 1-408 was expressed as a recombinant protein in E. coli and purified using IMAC columns by SD Biosciences (San Diego, CA). The remaining constructs were transformed into BL2 (DE3) chemically competent E. coli (Thermo Fisher Scientific) and protein expression was induced with IPTG. Cells were lysed with Bugbuster (Sigma), and 6×his-La proteins were affinity purified using HisPur Cobalt Spin columns (Thermo Fisher Scientific), each according to the manufacturer's instructions. Endotoxin contaminates were depleted from affinity purified 6×his-La proteins using Pierce high-capacity endotoxin removal columns (Thermo Fisher Scientific), according to the manufacturer's instructions. Proteins were then sterile filtered, aliquoted and kept at −80 C.
# Plasmids were introduced into primary osteoclasts at day 2 of RANKL stimulation via jetPRIME (Polyplus Transfection). FLAG-La 1-408, FLAG-La 1-375 and FLAG-La 1-375 Q20A_Y24A_D33I plasmids were a gift of the Maraia Lab (NICHD). Briefly, SSB (UniProt P05455) was inserted between HindIII and BamHI the pFLAG-CMV2 vector (Sigma). “Uncleavable” La was produced by taking the FLAG-La 1-408 plasmid and making two point mutations at amino acids D371A and D374A, abrogating the caspase cleavage sites at the C-terminal region of the protein (Emory Integrated Genomics Core). siRNA were introduced into primary osteoclasts after 1 day of RANKL stimulation via Lipofectamine RNAiMAX (Thermo Fisher Scientific). Non-targeted (Cat #4390843) and SSB-targeted (Cat #4392420_ID:s13469) siRNA were introduced at a concentration of 5 ng/ml (Silencer Select, Ambion).
# Fusion Assays: Osteoclast fusion in the culture systems was evaluated by fluorescence microscopy (Verma et al., J Biol Chem 293, 254-270, doi:10.1074/jbc.M117.809681 (2018)). Briefly, cells were fixed with 4% paraformaldehyde at timepoints of interest, permeabilized with 0.1% TRITON™ X-100 and blocked with 5% FBS. Cells were then stained with phallodin-ALEXAFLURO®488 and Hoechst to label cells' actin cytoskeleton and nuclei, respectively. […]
# [3] = target: T1, Anx A5 on PS containing liposomes (Homo sapiens, UniProt P08758); experiment: Liposome binding assay
# T1 sequence (P08758 1-320): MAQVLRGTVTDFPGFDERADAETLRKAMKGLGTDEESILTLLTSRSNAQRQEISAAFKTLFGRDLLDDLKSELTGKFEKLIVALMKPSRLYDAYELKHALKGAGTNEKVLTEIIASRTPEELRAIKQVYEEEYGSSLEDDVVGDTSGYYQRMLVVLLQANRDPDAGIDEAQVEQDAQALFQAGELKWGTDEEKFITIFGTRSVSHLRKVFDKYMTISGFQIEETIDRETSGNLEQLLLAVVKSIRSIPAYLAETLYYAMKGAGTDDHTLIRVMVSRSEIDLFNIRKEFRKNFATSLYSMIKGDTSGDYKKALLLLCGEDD
# Description: Anx A5 binds to PS containing membranes in a Ca^2+-dependent manner. Recombinant La was introduced alone or along with recombinant Anx A5 to PS containing liposomes and pelleted liposomes by centrifugation to evaluate whether La was enriched with liposomes or in supernatant (FIG. 12C).
# Liposome binding assay: Multilamellar liposomes were formed from pure PC or 9:1 (w/w) mixture of PC and PS. Both lipid compositions were supplemented with 0.5 mol % of lissamine rhodamine phosphatidylethanolamine. To prepare liposomes, lipid stock in benzene/methanol (95:5) was frozen in liquid nitrogen and freeze-dried overnight using SPEEDVAC™ (Savant). Dried lipid was resuspended in aqueous buffer (100 mM NaCl, 10 mM Hepes, pH 7.0) at 1 mM total lipid concentration and vortexed. Proteins and CaCl2 were added to the liposomes and the mixtures were incubated on ice for 30 minutes. To pellet, liposomes were centrifugated at 15,000 g for 20 minutes to pellet, based on rhodamine fluorescence ˜95% of liposomes. Centrifugated samples were then fractionated into a top, liposome-depleted fraction and a bottom fraction containing liposomes and liposome-bound proteins. Fractions were then solubilized via addition of Laemmli buffer (Bio Rad) and separated via SDS-PAGE, as described above. Recombinant La and recombinant Anx A5 were detected via their n-terminal 6×His tag via α-6×His antibody (Abcam) and signals for soluble vs liposome bound protein fractions were evaluated via densitometry. Data were presented as a percentage of protein signal bound to liposomes where: […]
# human osteoclasts = experiment: Synchronized osteoclast membrane fusion after LPC removal; format: cell-based; conditions: recombinant La applied to LPC-synchronized osteoclasts
# Method: It was then assessed whether La at the surface of human osteoclasts functions at the cell fusion stage of osteoclastogensis. All cell-cell fusion events in development and tissue maintenance proceed through slow (days), asynchronous differentiation processes that prepare fusion competent cells (Brukman et al., J Cell Biol 218, 1436-1451, doi:10.1083/jcb.201901017 (2019)). Then, PM fusion occurs by the rapid (minutes) progression from the initial formation of hemifusion connections to fusion pores that unite the volumes of two cells (FIG. 3D, top). These steps were decoupled in the formation of multinucleated syncytia using the hemifusion inhibitor lysophosphatidylcholine (LPC) (Verma et al., J Biol Chem 293, 254-270, doi:10.1074/jbc.M117.809681 (2018)). LPC's inverted cone shape is not conducive to the concave geometry of the hemifusion stalk, so ready-to-fuse cells are trapped upstream of hemifusion. After removing LPC, cells undergo synchronized fusion relatively rapidly (within 90 mins), affording the ability to assess the function of proteins specifically in the membrane fusion stage of osteoclast formation decoupled from upstream differentiation processes (FIG. 3D, bottom). Ready-to-fuse, RANKL committed cells were accumulated in the presence of LPC, and then this hemifusion blockade was lifted by washing out LPC. […]
molecule,measurement,setting,value
B1,HA0-cell bound RBCs that exchanged lipid (hemifusion) or cytoplasmic (fusion pore) probes,[1],none of 872
same,lower activity than fusion mediated by activated HA,[1],at least 100 fold
same,probability of La mediated fibroblast-RBC fusion,"[1]; upper limit by Wilson's method, 40 nM",≤ 0.0044 per cell contact
same,formation of multinucleated syncytia (osteoclast fusion),[2],promotes osteoclast fusion
same,pelleting with liposomes,"[3]; PS containing liposomes, La alone",pelleted poorly
same,pelleting with liposomes,"[3]; PS containing liposomes, La with Anx A5, Ca^2+",pelleted with liposomes
same,pelleting with liposomes,[3]; liposomes lacking PS,neither La nor Anx A5 pelleted
same,synchronized osteoclast membrane fusion,human osteoclasts,dramatically promoted
